First the molecules themselves.
B1: full-length p115–GFP (wild type) [human] / Sec13 [human (endogenous in HEK293T)] (parent complex)
chain 1: MNFLRGVMGGQSAGPQHTEAETIQKLCDRVASSTLLDDRRNAVRALKSLSKKYRLEVGIQAMEHLIHVLQTDRSDSEIIGYALDTLYNIISNEEEEEVEENSTRQSEDLGSQFTEIFIKQQENVTLLLSLLEEFDFHVRWPGVKLLTSLLKQLGPQVQQIILVSPMGVSRLMDLLADSREVIRNDGVLLLQALTRSNGAIQKIVAFENAFERLLDIISEEGNSDGGIVVEDCLILLQNLLKNNNSNQNFFKEGSYIQRMKPWFEVGDENSGWSAQKVTNLHLMLQLVRVLVSPTNPPGATSSCQKAMFQCGLLQQLCTILMATGVPADILTETINTVSEVIRGCQVNQDYFASVNAPSNPPRPAIVVLLMSMVNERQPFVLRCAVLYCFQCFLYKNQKGQGEIVSTLLPSTIDATGNSVSAGQLLCGGLFSTDSLSNWCAAVALAHALQENATQKEQLLRVQLATSIGNPPVSLLQQCTNILSQGSKIQTRVGLLMLLCTWLSNCPIAVTHFLHNSANVPFLTGQIAENLGEEEQLVQGLCALLLGISIYFNDNSLESYMKEKLKQLIEKRIGKENFIEKLGFISKHELYSRASQKPQPNFPSPEYMIFDHEFTKLVKELEGVITKAIYKSSEEDKKEEEVKKTLEQHDNIVTHYKNMIREQDLQLEELRQQVSTLKCQNEQLQTAVTQQVSQIQQHKDQYNLLKIQLGKDNQHQGSYSEGAQMNGIQPEEIGRLREEIEELKRNQELLQSQLTEKDSMIENMKSSQTSGTNEQSSAIVSARDSEQVAELKQELATLKSQLNSQSVEITKLQTEKQELLQKTEAFAKSVEVQGETETIIATKTTDVEGRLSALLQETKELKNEIKALSEERTAIKEQLDSSNSTIAILQTEKDKLELEITDSKKEQDDLLVLLADQDQKILSLKNKLKDLGHPVEEEDELESGDQEDEDDESEDPGKDLDHI
chain 2: MVSVINTVDTSHEDMIHDAQMDYYGTRLATCSSDRSVKIFDVRNGGQILIADLRGHEGPVWQVAWAHPMYGNILASCSYDRKVIIWREENGTWEKSHEHAGHDSSVNSVCWAPHDYGLILACGSSDGAISLLTYTGEGQWEVKKINNAHTIGCNAVSWAPAVVPGSLIDHPSGQKPNYIKRFASGGCDNLIKLWKEEEDGQWKEEQKLEAHSDWVRDVAWAPSIGLPTSTIASCSQDGRVFIWTCDDASSNTWSPKLLHKFNDVVWHVSWSITANILAVSGGDNKVTLWKESVDGQWVCISDVNKGQGSVSASVTEGQQNEQ
B2: full-length p115–GFP (wild type) [human] / endogenous Sec16A (HEK293T) [human (endogenous in HEK293T)] (parent complex)
chain 1: B1 chain 1
chain 2: MQPPPQTVPSGMAGPPPAGNPRSVFWASSPYRRRANNNAAVAPTTCPLQPVTDPFAFSRQALQSTPLGSSSKSSPPVLQGPAPAGFSQHPGLLVPHTHARDSSQGPCEPLPGPLTQPRAHASPFSGALTPSAPPGPEMNRSAEVGPSSEPEVQTLPYLPHYIPGVDPETSHGGHPHGNMPGLDRPLSRQNPHDGVVTPAASPSLPQPGLQMPGQWGPVQGGPQPSGQHRSPCPEGPVPSGVPCATSVPHFPTPSILHQGPGHEQHSPLVAPPAALPSDGRDEVSHLQSGSHLANNSDPESTFRQNPRIVNHWASPELRQNPGVKNEHRPASALVNPLARGDSPENRTHHPLGAGAGSGCAPLEADSGASGALAMFFQGGETENEENLSSEKAGLSGQADFDDFCSSPGLGRPPAPTHVGAGSLCQALLPGPSNEAAGDVWGDTASTGVPDASGSQYENVENLEFVQNQEVLPSEPLNLDPSSPSDQFRYGPLPGPAVPRHGAVCHTGAPDATLHTVHPDSVSSSYSSRSHGRLSGSARPQELVGTFIQQEVGKPEDEASGSFFKQIDSSPVGGETDETTVSQNYRGSVSQPSTPSPPKPTGIFQTSANSSFEPVKSHLVGVKPFEADRANVVGEVRETCVRQKQCRPAAALPDASPGNLEQPPDNMETLCAPQVCPLPLNSTTEAVHMLPHAGAPPLDTVYPAPEKRPSARTQGPVKCESPATTLWAQSELPDFGGNVLLAPAAPALYVCAKPQPPVVQPPEEAMSGQQSRNPSSAAPVQSRGGIGASENLENPPKMGEEEALQSQASSGYASLLSSPPTESLQNPPVLIAQPDHSYNLAQPINFSVSLSNSHEKNQSWREALVGDRPAVSSWALGGDSGENTSLSGIPTSSVLSLSLPSSVAQSNFPQGSGASEMVSNQPANLLVQPPSQPVPENLVPESQKDRKAGSALPGFANSPAGSTSVVLVPPAHGTLVPDGNKANHSSHQEDTYGALDFTLSRTLENPVNVYNPSHSDSLASQQSVASHPRQSGPGAPNLDRFYQQVTKDAQGQPGLERAQQELVPPQQQASPPQLPKAMFSELSNPESLPAQGQAQNSAQSPASLVLVDAGQQLPPRPPQSSSVSLVSSGSGQAAVPSEQPWPQPVPALAPGPPPQDLAAYYYYRPLYDAYQPQYSLPYPPEPGAASLYYQDVYSLYEPRYRPYDGAASAYAQNYRYPEPERPSSRASHSSERPPPRQGYPEGYYSSKSGWSSQSDYYASYYSSQYDYGDPGHWDRYHYSARVRDPRTYDRRYWCDAEYDAYRREHSAFGDRPEKRDNNWRYDPRFTGSFDDDPDPHRDPYGEEVDRRSVHSEHSARSLHSAHSLASRRSSLSSHSHQSQIYRSHNVAAGSYEAPLPPGSFHGDFAYGTYRSNFSSGPGFPEYGYPADTVWPAMEQVSSRPTSPEKFSVPHVCARFGPGGQLIKVIPNLPSEGQPALVEVHSMEALLQHTSEQEEMRAFPGPLAKDDTHKVDVINFAQNKAMKCLQNENLIDKESASLLWNFIVLLCRQNGTVVGTDIAELLLRDHRTVWLPGKSPNEANLIDFTNEAVEQVEEEESGEAQLSFLTGGPAAAASSLERETERFRELLLYGRKKDALESAMKNGLWGHALLLASKMDSRTHARVMTRFANSLPINDPLQTVYQLMSGRMPAASTCCGDEKWGDWRPHLAMVLSNLNNNMDVESRTMATMGDTLASRGLLDAAHFCYLMAQAGFGVYTKKTTKLVLIGSNHSLPFLKFATNEAIQRTEAYEYAQSLGAETCPLPSFQVFKFIYSCRLAEMGLATQAFHYCEAIAKSILTQPHLYSPVLISQLVQMASQLRLFDPQLKEKPEEESLAAPTWLVHLQQVERQIKEGAGVWHQDGALPQQCPGTPSSEMEQLDRPGLSQPGALGIANPLLAVPAPSPEHSSPSVRLLPSAPQTLPDGPLASPARVPMFPVPLPPGPLEPGPGCVTPGPALGFLEPSGPGLPPGVPPLQERRHLLQEARSPDPGIVPQEAPVGNSLSELSEENFDGKFANLTPSRTVPDSEAPPGWDRADSGPTQPPLSLSPAPETKRPGQAAKKETKEPKKGESWFFRWLPGKKKTEAYLPDDKNKSIVWDEKKNQWVNLNEPEEEKKAPPPPPTSMPKTVQAAPPALPGPPGAPVNMYSRRAAGTRARYVDVLNPSGTQRSEPALAPADFVAPLAPLPIPSNLFVPTPDAEEPQLPDGTGREGPAAARGLANPEPAPEPKVLSSAASLPGSELPSSRPEGSQGGELSRCSSMSSLSREVSQHFNQAPGDLPAAGGPPSGAMPFYNPAQLAQACATSGSSRLGRIGQRKHLVLN

In one experiment the parent is B1. The experiment is described as follows: co-precipitation with p115–GFP, volcano plot of protein enrichment; HEK293T cells; means of biological triplicates; read off a plot.
As to chain 1 Q462D, the screen value was approximately 5.8.

A further experiment covers variants of B2. Described as above.
Turning to chain 1 Q462D, the screen value was approximately 6.1.

The values above are taken from paper PMC7619307, “The Golgi vesicle tether p115 can bind directly to the ER exit site organiser Sec16A” (Journal of cell science, 2026).
